± gives the standard deviation of the averaged measurements.
Each sequence was assayed on Saccharomyces cerevisiae (assay: protein stability index of tFT-peptide fusion (C-terminal peptide) (PSI (0-1 scale)); higher = more stable (slower turnover)). Settings: genetic background: wild type; temperature: 30 C.
With WENMDKCSKGLI the protein stability index was 0.6767 ± 0.0033.
YPDPLSVSPPPA gave a protein stability index of 0.682 ± 0.097.
With ELCAFLFYPFVV the protein stability index was 0.599 ± 0.039.
With AGGGGGVTASGA the protein stability index was 0.71 ± 0.063.
Sequence RDSQSGVVVKGT has a protein stability index of 0.726 ± 0.024.
In the case of GGTSVLPPAVLF, the protein stability index is reported as 0.762 ± 0.004.
In the case of QPGDVWEFGVLL, the protein stability index is reported as 0.73 ± 0.027.
Sequence WRELGCFGVRGD has a protein stability index of 0.732 ± 0.022.
PLPPCSARPPPR was tested, and the protein stability index was 0.7657 ± 0.0042.
For VPSRRLPLPPAS, the protein stability index was 0.695 ± 0.0086.
With GVNGSGFLSEVI the protein stability index was 0.6795 ± 0.0012.
For LVQGPLSQDQPI, the protein stability index was 0.656 ± 0.029.
Sequence PISLFLSSSAPL has a protein stability index of 0.729 ± 0.053.
With ELRSAIRAVPFL the protein stability index was 0.737 ± 0.028.
Work on GIVRGFGGGGEE yielded a protein stability index of 0.662 ± 0.026.
KLVGFRPHAWWF showed a protein stability index of 0.701 ± 0.016.
Sequence WAPFGKMVGGPW has a protein stability index of 0.785 ± 0.027.
In the case of SPRFSPPAILHN, the protein stability index is reported as 0.71 ± 0.0091.
In the case of RICTLCRGGRTP, the protein stability index is reported as 0.673 ± 0.03.
NVAKTTTRHNRP showed a protein stability index of 0.718 ± 0.011.
In the case of MCLSYLSIFLSL, the protein stability index is reported as 0.548 ± 0.065.
Sequence VDGSYCGTLASY has a protein stability index of 0.6568 ± 0.0033.
GGPVDGSVDRGR was tested, and the protein stability index was 0.627 ± 0.017.
PPPPVPRPRLPI showed a protein stability index of 0.648 ± 0.099.
Work on SLFALPLPPPAQ yielded a protein stability index of 0.695 ± 0.025.
In the case of NFLVNGRASLKV, the protein stability index is reported as 0.583 ± 0.016.
In the case of VPVGSLLVGSVT, the protein stability index is reported as 0.528 ± 0.012.
In the case of PDPPPLLPRLSL, the protein stability index is reported as 0.701 ± 0.016.
In the case of EQKYHTCEDAQK, the protein stability index is reported as 0.685 ± 0.1.
LQCCVAVTNYCV was tested, and the protein stability index was 0.54 ± 0.016.
Sequence LDLLIVNFFNLV has a protein stability index of 0.69 ± 0.13.
CMEYFMHFVKGD was tested, and the protein stability index was 0.701 ± 0.06.
With CVTLPPHPLPPP the protein stability index was 0.6623 ± 0.0058.
Work on DINNDQKCTLMK yielded a protein stability index of 0.71 ± 0.013.
Sequence GPCSSMFGLRYT has a protein stability index of 0.672 ± 0.033.
Work on WERRRGVCGGVW yielded a protein stability index of 0.707 ± 0.05.
PNQTRPHPHHNL gave a protein stability index of 0.69 ± 0.02.
With PSLPPPFPPLRP the protein stability index was 0.7044 ± 0.0013.
RVLVSPPPPLPS gave a protein stability index of 0.688 ± 0.026.
PNLTYNTLRVVL was tested, and the protein stability index was 0.638 ± 0.04.
For GIVFRGVVTWLL, the protein stability index was 0.6 ± 0.0085.
Sequence WRCAGGGGVGGG has a protein stability index of 0.6956 ± 0.0011.
In the case of RIDRDDHLVPNS, the protein stability index is reported as 0.626 ± 0.092.
ISPRLGLPLAPL showed a protein stability index of 0.732 ± 0.067.
Work on FFSSTVFLLFLP yielded a protein stability index of 0.569 ± 0.025.
Work on TLQKKLTVNTKK yielded a protein stability index of 0.738 ± 0.11.
For ISEGNNQNLSQT, the protein stability index was 0.689 ± 0.011.
RTDALKVVADMI gave a protein stability index of 0.682 ± 0.034.
FFACHDGYWCGC was tested, and the protein stability index was 0.778 ± 0.036.
PPPPPTPHTPLL showed a protein stability index of 0.672 ± 0.031.
In the case of PVFLEFESWCVC, the protein stability index is reported as 0.685 ± 0.044.
In the case of GSLPQLRAACRA, the protein stability index is reported as 0.566 ± 0.023.
In the case of LPLALLSPPFGS, the protein stability index is reported as 0.707 ± 0.022.
Sequence SPGSVIVSASLL has a protein stability index of 0.651 ± 0.039.
Sequence DPRRNGAPLRSI has a protein stability index of 0.676 ± 0.039.
In the case of VCIGVGGGVLGL, the protein stability index is reported as 0.6746 ± 0.0036.
VGGAVDFSVFFC showed a protein stability index of 0.585 ± 0.018.
PRPLTPPAPPHP showed a protein stability index of 0.748 ± 0.041.
Work on WPPPPPYSPFSL yielded a protein stability index of 0.737 ± 0.02.
With HSFPSTLRRCFL the protein stability index was 0.731 ± 0.095.
SGRIHLLHSPWV was tested, and the protein stability index was 0.712 ± 0.052.
With CCVYFLSMFFVL the protein stability index was 0.575 ± 0.026.
HSRGGEPLTPAW was tested, and the protein stability index was 0.642 ± 0.092.
DSPPHPPPASAP was tested, and the protein stability index was 0.714 ± 0.017.
In the case of VRRSNKTIKRKK, the protein stability index is reported as 0.746 ± 0.1.
For WLGWIVNNSNTE, the protein stability index was 0.753 ± 0.058.
In the case of IKIKKKKKKKRD, the protein stability index is reported as 0.665 ± 0.012.
With ASPSSAAQPLSP the protein stability index was 0.641 ± 0.099.
SLTEAVHWDRIS showed a protein stability index of 0.67 ± 0.032.
In the case of WRAGGGGGPAGV, the protein stability index is reported as 0.679 ± 0.029.
CSATVLSNCTFP was tested, and the protein stability index was 0.687 ± 0.051.
Sequence FLPLPRPRLLLP has a protein stability index of 0.617 ± 0.0076.
In the case of PSAFSPPARISL, the protein stability index is reported as 0.761 ± 0.066.
Sequence GRRGGRLSWAPG has a protein stability index of 0.659 ± 0.017.
Sequence RYGARAGPPVNL has a protein stability index of 0.68 ± 0.054.
DLPVIGHRLPLF gave a protein stability index of 0.684 ± 0.012.
In the case of LVSFSDTPMATA, the protein stability index is reported as 0.786 ± 0.1.
With KKQHTKKKKKKR the protein stability index was 0.752 ± 0.041.
Sequence PVICFTSYPDRQ has a protein stability index of 0.7 ± 0.098.
Work on PSGLVSPSCLGC yielded a protein stability index of 0.68 ± 0.022.
Sequence SPPLSFPTLQLF has a protein stability index of 0.625 ± 0.15.
In the case of PPRQPFPPILPS, the protein stability index is reported as 0.677 ± 0.046.
PTRRFVFCDVDK was tested, and the protein stability index was 0.717 ± 0.077.
Work on RPPPRPPHPPPL yielded a protein stability index of 0.6791 ± 0.0048.
VCALGWWASWVW showed a protein stability index of 0.5512 ± 0.0013.
Work on GCGREGGGLDKD yielded a protein stability index of 0.781 ± 0.094.
PSPPRPSGVPVT gave a protein stability index of 0.674 ± 0.017.
PPRAPLPRPPQP gave a protein stability index of 0.656 ± 0.011.
DHSWPSTDRVLL gave a protein stability index of 0.676 ± 0.0096.
In the case of IALLGCFRVNGN, the protein stability index is reported as 0.638 ± 0.095.
PKSRTLKDITIF showed a protein stability index of 0.684 ± 0.024.
For AREGGGRAGRRE, the protein stability index was 0.729 ± 0.021.
GESWEKVMNKRM showed a protein stability index of 0.704 ± 0.049.
Sequence GPEAVARIFDDE has a protein stability index of 0.708 ± 0.0095.
With SPGDVVVAVGGG the protein stability index was 0.6669 ± 0.0037.
TKKNKLRQKKTE gave a protein stability index of 0.6457 ± 0.0028.
Work on GGGKRSERGGEP yielded a protein stability index of 0.672 ± 0.12.
Sequence PLAPSSHLHPSP has a protein stability index of 0.75 ± 0.0015.
YGPDQIGPRPGL showed a protein stability index of 0.69 ± 0.041.
With INVCVLSSSTAS the protein stability index was 0.684 ± 0.079.
Sequence FWGGGRGLVGEV has a protein stability index of 0.664 ± 0.024.
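Also: PSI is a weighted mean of sequencing reads over stability bins, variants kept only with over 10 reads, mCherry proximal and sfGFP distal, peptide attached via GGGS linker.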
